Test results from PMC12478413 (bioRxiv, 2025).
Where two headings read alike, the source gives them in different places. One block for each molecule: values may come before it.

Legend:
[1] = target: recombinant GCase E326K+R329A double mutant (human); assay: SEC
[2] = target: recombinant human LIMP2 lumenal domain (residues 36-430) (human) (UniProt Q14108); assay: SPR
[3] = target: recombinant GCase E326K variant (human GBA1 residues A40-Q536) (human); assay: SEC
[4] = target: recombinant GCase E326K variant (human GBA1 residues A40-Q536) (human); assay: dynamic light scattering
[5] = target: recombinant human LIMP2 lumenal domain (residues 36-430) (human) (UniProt Q14108); assay: SEC-MALS
[6] = target: recombinant human LIMP2 lumenal domain (residues 36-430) (human) (UniProt Q14108); assay: SPR; remark: listed apart in the source
[7] = target: T1, recombinant WT GCase (glucocerebrosidase, human GBA1 residues A40-Q536) (human, UniProt P04062 40-536); assay: SPR
T1 sequence (looked up): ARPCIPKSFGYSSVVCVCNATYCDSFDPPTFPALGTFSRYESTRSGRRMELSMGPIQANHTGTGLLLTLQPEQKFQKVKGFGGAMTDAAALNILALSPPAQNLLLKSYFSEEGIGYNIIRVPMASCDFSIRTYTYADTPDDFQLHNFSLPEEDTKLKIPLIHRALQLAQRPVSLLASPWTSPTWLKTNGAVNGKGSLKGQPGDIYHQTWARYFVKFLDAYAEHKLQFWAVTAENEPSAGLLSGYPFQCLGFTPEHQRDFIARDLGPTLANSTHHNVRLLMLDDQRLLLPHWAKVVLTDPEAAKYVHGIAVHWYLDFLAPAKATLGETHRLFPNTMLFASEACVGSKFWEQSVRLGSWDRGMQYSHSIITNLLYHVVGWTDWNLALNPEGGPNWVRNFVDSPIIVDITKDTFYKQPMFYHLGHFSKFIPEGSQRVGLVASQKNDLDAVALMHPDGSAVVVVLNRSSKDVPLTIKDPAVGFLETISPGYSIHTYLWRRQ

[8] = target: T1, recombinant WT GCase …; assay: SPR; remark: listed apart in the source

- stoichiometry N [1]: 2
Molecule: recombinant GCase E326K+R329A double mutant (enzyme)

- Kd [2]: 3.89 nM
- stoichiometry N [3]: 2
- stoichiometry N [4]: 2
- stoichiometry N (GCase E326K : LIMP2 (2:2)) [5]: 1
- Kd [6]: 2.44 nM
Molecule: recombinant GCase E326K variant (human GBA1 residues A40-Q536) (enzyme)

- Kd [7]: 14.4 nM
- Kd [8]: 19.9 nM
B1: recombinant human LIMP2 lumenal domain (residues 36-430) (domain or fragment, UniProt Q14108 36-430, looked up)
chain: SIEKKIVLRNGTEAFDSWEKPPLPVYTQFYFFNVTNPEEILRGETPRVEEVGPYTYRELRNKANIQFGDNGTTISAVSNKAYVFERDQSVGDPKIDLIRTLNIPVLTVIEWSQVHFLREIIEAMLKAYQQKLFVTHTVDELLWGYKDEILSLIHVFRPDISPYFGLFYEKNGTNDGDYVFLTGEDSYLNFTKIVEWNGKTSLDWWITDKCNMINGTDGDSFHPLITKDEVLYVFPSDFCRSVYITFSDYESVQGLPAFRYKVPAEILANTSDNAGFCIPEGNCLGSGVLNVSICKNGAPIIMSFPHFYQADERFVSAIEGMHPNQEDHETFVDINPLTGIILKAAKRFQINIYVKKLDDFVETGDIRTMVFPVMYLNESVHIDKETASRLKSMIN
modifications: biotin on the Avitag (BirA, for SPR)
